{"source": "patent US12577303B2", "key": {"[1]": {"molecular_target": "human Sirpα-V1 on CHO-K1 hSirpα+ cells (human) (UniProt P78324)", "test": "cell ELISA on CHO-K1 hSirpα+ cells"}, "[2]": {"molecular_target": "human Sirpα-V1-his (human) (UniProt P78324)", "test": "blocking ELISA: hSirpα to hCD47 (dimer)"}, "[3]": {"molecular_target": "human T cells (expressing Sirpγ) (human) (UniProt Q9P1W8)", "test": "flow cytometry on human PBMC T cells"}, "[4]": {"molecular_target": "human Sirpα-V1 recombinant protein (human) (UniProt P78324)", "test": "ELISA"}, "[5]": {"molecular_target": "human Sirpα-V1 recombinant protein (human) (UniProt P78324)", "test": "ELISA", "remark": "listed apart in the source"}, "[6]": {"molecular_target": "human Sirpβ-his (human) (UniProt O00241)", "test": "ELISA"}, "[7]": {"molecular_target": "human Sirpα-V1 on CHO-K1 hSirpα+ cells (human) (UniProt P78324)", "test": "cell ELISA on hSirpα-v1+ cell strain"}, "[8]": {"molecular_target": "human Sirpα-V1-his (human) (UniProt P78324)", "test": "blocking ELISA: hSirpα to CD47 (dimer)"}, "[9]": {"molecular_target": "human Sirpα-V1-hFc (human) (UniProt P78324)", "test": "blocking ELISA: hSirpα (dimer) to CD47"}, "[10]": {"molecular_target": "human T cells (expressing Sirpγ) (human) (UniProt Q9P1W8)", "test": "flow cytometry on human PBMC T cells, 10 µg/mL"}, "[11]": {"molecular_target": "human Sirpα-V1-hFc (human) (UniProt P78324)", "test": "blocking ELISA: hSirpα (dimer) to hCD47"}, "[12]": {"molecular_target": "human Sirpα-V1 recombinant protein (human) (UniProt P78324)", "test": "ELISA", "remark": "listed apart in the source"}}, "note": "Where two headings read alike, the source gives them in different places.", "data": [{"substance": "positive control antibody 1 (Ref1, OSE-172)", "values": [{"measurement": "EC50", "setting": "[1]", "value": 0.37, "unit": "nM"}, {"measurement": "IC50", "setting": "[2]", "value": 4.58, "unit": "nM"}, {"measurement": "T-cell binding activity (% binding)", "setting": "[3]", "value": 1.79, "unit": "%"}, {"measurement": "EC50", "setting": "[4]", "value": 0.072, "unit": "nM"}, {"measurement": "EC50", "setting": "[5]", "value": 0.057, "unit": "nM"}, {"measurement": "EC50", "setting": "[6]", "value": 0.126, "unit": "nM"}, {"measurement": "EC50", "setting": "[7]", "value": 0.084, "unit": "nM"}, {"measurement": "IC50", "setting": "[8]", "value": 4.16, "unit": "nM"}, {"measurement": "IC50", "setting": "[9]", "value": 3.74, "unit": "nM"}, {"measurement": "proportion of cells with fluorescence intensity above 10^3", "setting": "[10]", "value": 0.49, "unit": "%"}, {"measurement": "IC50", "setting": "[11]", "value": 4.55, "unit": "nM"}, {"measurement": "EC50", "setting": "[12]", "value": 0.17, "unit": "nM"}]}]}
